# Assay results from patent publication US20260226133A1 (ANGELES THERAPEUTICS, published 2026).
# Target: T1, MSLN (UniProt Q13421 37-598, limits assumed)
# T1 construct: whole, on cells; also called Mesothelin
# Test: Malibu-Glo assay; NLuc fusion supernatant on SKOV3 cells, control Jurkat cells
# T1 sequence (Q13421 other isoform, or with tags, fused parts or gaps limits assumed): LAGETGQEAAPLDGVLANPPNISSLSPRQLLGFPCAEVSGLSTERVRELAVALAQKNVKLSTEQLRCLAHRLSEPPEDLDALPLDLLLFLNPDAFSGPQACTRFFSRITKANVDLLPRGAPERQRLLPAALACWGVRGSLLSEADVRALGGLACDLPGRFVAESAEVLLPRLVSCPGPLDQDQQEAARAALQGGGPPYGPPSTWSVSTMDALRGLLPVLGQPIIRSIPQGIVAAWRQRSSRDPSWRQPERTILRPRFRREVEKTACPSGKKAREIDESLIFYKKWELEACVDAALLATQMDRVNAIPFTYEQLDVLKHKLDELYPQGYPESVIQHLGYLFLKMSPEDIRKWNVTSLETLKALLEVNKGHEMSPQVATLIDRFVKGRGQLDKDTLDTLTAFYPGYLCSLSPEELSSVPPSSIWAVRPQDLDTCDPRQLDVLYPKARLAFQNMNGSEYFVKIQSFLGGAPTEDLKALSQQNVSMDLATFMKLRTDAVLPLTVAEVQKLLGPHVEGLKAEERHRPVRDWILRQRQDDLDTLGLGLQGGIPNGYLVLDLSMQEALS
binder,measurement,value
"AT2-K65R vHH (MSLN), NLuc fusion (VHH) VHH: QVQLVESGGGVVQPGGSLRLSCAASGLSFSTYTVAWFRQAPGKGLEGVAAIPYTSQHMVYTDSVRGRFTISRDNSKNTLYLQMNSLRAEDTAVYYCATDRRPGTSMLAINGYNRWGQGTTVTVSS","Fold Change (Luc activity, target cell line over control cell line)",11.5 fold
